Reference: US20230414780A1 (VECT HORUS, published 2023)
Positions count from the first letter of the chain named.

Key:
[1] = biological target: T1, murine TfR expressed by murine neuroblastoma Neuro-2a cells (mouse, UniProt Q62351 1-763); assay: competition with C5-Alexa680 (100 nM) on living Neuro-2a cells, 3 hrs at 37 C, flow cytometry; Ki/app, mean ± SD
T1 construct: whole, on cells; also called mTfR (N2a cells)
Method: The binding of VHH-Oligo and VHH-hFc-Oligo conjugates to mTfR was evaluated using a competition assay on living cells expressing the receptor of interest, namely murine neuroblastoma Neuro-2a cells (N2a). N2a cells were grown in Dulbecco's Modified Eagle Medium (DMEM) GlutaMAX supplemented with 10% v/v FBS in 5% CO₂ at 37° C. Cells were seeded two days before experiments in 96-well plates at a density of 50.000 cells/well. […] Resuspended cells were transferred in a 96-deepwell plate (V-bottom) containing 1% fetal bovine serum (FBS)/0.02% sodium azide in phosphate-buffered saline (PBS) and then centrifuged for 5 min at 2000 rpm at 4° C. After removing the supernatant, 5 mM EDTA in D-PBS and 4% paraformaldehyde (PFA) (v/v 1:1) were added into wells to fix cells for 15 min at room temperature. PFA was removed by centrifugation (5 min, 3000 rpm, 4° C.) and cells were resuspended with 5 mM EDTA in D-PBS. Then the cellular A680-associated fluorescence signal was quantified using an Attune™ NxT flow cytometer (Thermo Fisher Scientific) equipped with Attune™ NxT v3.1.2. Experimental data (experimental triplicates) were fitted with GraphPad Prism® software using a nonlinear fit to determine the apparent Ki inhibition constants.

[2] = biological target: T1, murine TfR expressed by murine …; assay: cell-based or functional assay
[3] = biological target: T2, human transferrin receptor (hTfR) fused to EGFP, on CHO cells (human, UniProt P02786 1-760); assay: apparent Kd, flow cytometry, CHO cells
T2 construct: whole, on cells; also called human TfR; CHO-hTfR-EGFP; not shown: EGFP from pEGFP-C1 vector, fused to the N-terminal (intracellular) end of hTfR
Method: All experiments were performed in 96 well plates using 2×10⁵ cells/well, at 4° C. with shaking. CHO cell lines stably expressing the hTfR or the mTfR fused to EGFP or CHO WT cells were saturated with PBS/BSA 2% solution during 30 min to avoid non-specific binding, followed by incubation with purified VHHs at concentrations ranging from 50 μM to 5 μM for 1 hr. After one wash in PBS/BSA 2%, cells were incubated for 1 hr with an anti-6His tag antibody (mouse), washed twice with PBS/BSA 2%, and incubated for 45 min with an Alexa647-conjugated anti-mouse secondary antibody. After two last washes in PBS/BSA 2%, cells were fixed by incubation for 15 min with PBS/PFA 2%, washed once with PBS and finally resuspended in PBS and stored at 4° C. Fluorescence levels were assessed using an Attune NxT Flow Cytometer (Thermo Fisher Scientific). […] No labeling of the CHO WT control cells was detected with all the tested VHHs (not shown). The VHH K_{d app} were calculated using GraphPad Prism software (FIG. 11-B; 12-B).

[4] = biological target: T2, human transferrin receptor (hTfR) fused …; assay: flow cytometry on CHO-hTfR-EGFP cells, 1 hr at 4 C, anti-6His + Alexa647 anti-mouse; apparent Kd, mean ± SEM of 3 experiments
Method: (§1) (A) CHO-hTfR-EGFP and CHO-mTfR-EGFP cells were incubated 1 hr at 4° C. with various concentrations of VHHs, detected with a mouse anti-6His (1/1000) and an Alexa647-conjugated anti-mouse secondary antibody (1/400). Measurements were performed using flow cytometry. The ratio of fluorescence intensity for each point was normalized with the corresponding EGFP signal (receptor expression) and gave rise to the arbitrary unit. Data are presented as mean±SEM of 3 independent experiments. (B) Characteristics of VHHs: Molecular Weight (Da); Theoretical pI; Apparent Kd on human TfR (nM); Apparent Kd on mouse TfR (nM). Data are presented as mean±SEM of 3 independent experiments. NB: no binding, LB: low binding.
(§2) All experiments were performed in 96 well plates using 2×10⁵ cells/well, at 4° C. with shaking. CHO cell lines stably expressing the hTfR or the mTfR fused to EGFP or CHO WT cells were saturated with PBS/BSA 2% solution during 30 min to avoid non-specific binding, followed by incubation with purified VHHs at concentrations ranging from 50 μM to 5 μM for 1 hr. After one wash in PBS/BSA 2%, cells were incubated for 1 hr with an anti-6His tag antibody (mouse), washed twice with PBS/BSA 2%, and incubated for 45 min with an Alexa647-conjugated anti-mouse secondary antibody. […] Fluorescence levels were assessed using an Attune NxT Flow Cytometer (Thermo Fisher Scientific).

[5] = biological target: T3, mouse transferrin receptor (mTfR) fused to EGFP, on CHO cells (mouse, UniProt Q62351 1-763); assay: flow cytometry on CHO-mTfR-EGFP cells, 1 hr at 4 C, anti-6His + Alexa647 anti-mouse; apparent Kd, mean ± SEM of 3 experiments
T3 construct: whole, on cells; also called mouse TfR; CHO-mTfR-EGFP; not shown: EGFP
Method: as §1, §2

[6] = biological target: T3, mouse transferrin receptor (mTfR) fused …; assay: flow cytometry on CHO-mTfR-EGFP cells, 1 hr at 4 C, anti-6His + Alexa647 anti-mouse
Method: as §1, §2

[7] = biological target: T2, human transferrin receptor (hTfR) fused …; assay: competition flow cytometry on CHO-hTfR-EGFP cells, 4 C; VHH competitor in dilution series, phage-H1 tracer at EC80, anti-M13-A647
Method: FIGS. 17A-17D: Competition assays between VHHs and phage-VHHs. CHO-hTfR-EGFP cells were incubated 1 hr at 4° C. with VHHs (competitors) at increasing concentrations. Phage-VHHs (tracers) were then added at EC80 and incubated for 1 more hr. Phage-VHHs were detected with an anti-M13-A647 antibody (1/200). Fluorescence levels were assessed using flow cytometry. The ratio of fluorescence intensity for each point was normalized with the corresponding EGFP signal (receptor expression) and gave rise to the arbitrary unit. Data are presented as mean±SEM of independent experiments.
To evaluate whether selected VHHs compete one with the other for binding to the TfR receptor, competition assays using flow cytometry experiments were performed. All experiments were performed in 96 well plates using 2×10⁵ cells/well, at 4° C. with shaking. CHO cell line expressing the hTfR fused to EGFP was saturated with PBS/BSA 2% solution during 30 min to avoid nonspecific binding, followed by incubation with VHH (competitors) at increasing concentrations for 1 hr. Then, phage-VHHs (tracers) at EC80 were added and incubated 1 hr more. To detect the phage-VHHs, cells were washed twice with PBS/BSA 2% and incubated for 1 hr with an Alexa647-conjugated anti-M13 antibody. […] Fluorescence levels were assessed using an Attune NxT flow cytometer (Thermo Fisher Scientific). […]

[8] = biological target: T4, rhesus monkey transferrin receptor (rhTfR) fused to EGFP, on CHO cells (rhesus monkey); assay: apparent Kd, flow cytometry, CHO cells
T4 construct: whole, on cells; also called rhesus monkey TfR
Procedure, shortened: (§3)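 CHO cells expressing TfR-EGFP fusions, blocked in PBS/BSA 2%, then incubated with increasing VHH concentrations for 1 hr at 4° C. Bound VHH detected via anti-6His antibody and Alexa647 secondary, cells PFA-fixed, read by flow cytometry. Apparent Kd from nonlinear fit.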

[9] = biological target: T2, human transferrin receptor (hTfR) fused …; assay: apparent Kd, flow cytometry, CHO cells; remark: listed apart in the source
Procedure, shortened: as §3

[10] = biological target: T3, mouse transferrin receptor (mTfR) fused …; assay: flow cytometry, CHO cells
Method: (§4) The binding properties of VHHs with affinity for the TfR from different species (i.e., human (h), mouse (m) and rhesus monkey (rh)) were tested using flow cytometry, and apparent affinities (Kd app) were determined. All experiments were performed in 96 well plates using 2×10⁵ cells/well, at 4° C. with shaking. CHO cell lines expressing the hTfR, mTfR or rhTfR fused to EGFP were saturated with PBS/BSA 2% solution during 30 min to avoid nonspecific binding, followed by incubation with purified VHHs at increasing concentrations for 1 hr. After one wash in PBS/BSA 2%, cells were incubated for 1 hr with an anti-6His tag antibody (mouse), washed twice with PBS/BSA 2%, and incubated for 1 hr with an Alexa647-conjugated anti-mouse secondary antibody. After two last washes in PBS/BSA 2%, cells were fixed by incubation for 15 min with PBS/PFA 2%, washed once with PBS and finally resuspended in PBS. Fluorescence levels were assessed using an Attune NxT flow cytometer (Thermo Fisher Scientific). Experimental data were fitted with GraphPad Prism® software using a nonlinear fit to determine the apparent Kd constants. […] Table 5 hereafter summarizes apparent Kd obtained for the tested VHHs.

[11] = biological target: T2, human transferrin receptor (hTfR) fused …; assay: apparent Kd, cell-based assay
[12] = biological target: T2, human transferrin receptor (hTfR) fused …; assay: cell-based assay on hTfR; Kd/app (the text, paragraph 408, gives 25.6 nM for this molecule)
[13] = biological target: T2, human transferrin receptor (hTfR) fused …; assay: cell-based assay on hTfR; Kd/app (the text, paragraph 408, gives 16.7 nM for this molecule)
[14] = biological target: T2, human transferrin receptor (hTfR) fused …; assay: flow cytometry, CHO cells
Method: as §4

T2 sequence (P02786 whole entry, the tested form may be a part): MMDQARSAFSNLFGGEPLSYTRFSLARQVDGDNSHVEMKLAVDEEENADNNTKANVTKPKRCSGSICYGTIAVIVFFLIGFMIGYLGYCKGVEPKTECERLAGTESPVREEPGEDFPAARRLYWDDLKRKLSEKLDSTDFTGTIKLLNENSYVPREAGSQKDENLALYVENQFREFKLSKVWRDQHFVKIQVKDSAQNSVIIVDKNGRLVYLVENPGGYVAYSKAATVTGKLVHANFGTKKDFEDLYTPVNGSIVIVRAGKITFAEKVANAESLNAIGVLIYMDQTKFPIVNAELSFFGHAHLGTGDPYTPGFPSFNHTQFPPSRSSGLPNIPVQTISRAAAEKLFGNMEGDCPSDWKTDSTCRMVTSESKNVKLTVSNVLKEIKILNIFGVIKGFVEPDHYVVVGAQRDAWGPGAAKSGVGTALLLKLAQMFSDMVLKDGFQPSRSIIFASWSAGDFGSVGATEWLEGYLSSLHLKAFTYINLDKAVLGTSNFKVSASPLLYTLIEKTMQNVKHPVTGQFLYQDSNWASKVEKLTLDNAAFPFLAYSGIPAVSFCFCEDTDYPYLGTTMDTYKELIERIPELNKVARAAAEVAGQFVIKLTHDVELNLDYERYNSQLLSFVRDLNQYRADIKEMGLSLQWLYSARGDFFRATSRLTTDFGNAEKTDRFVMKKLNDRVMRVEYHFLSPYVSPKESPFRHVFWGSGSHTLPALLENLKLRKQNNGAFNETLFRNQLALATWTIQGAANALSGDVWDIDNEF
T3 sequence (Q62351 whole entry, the tested form may be a part): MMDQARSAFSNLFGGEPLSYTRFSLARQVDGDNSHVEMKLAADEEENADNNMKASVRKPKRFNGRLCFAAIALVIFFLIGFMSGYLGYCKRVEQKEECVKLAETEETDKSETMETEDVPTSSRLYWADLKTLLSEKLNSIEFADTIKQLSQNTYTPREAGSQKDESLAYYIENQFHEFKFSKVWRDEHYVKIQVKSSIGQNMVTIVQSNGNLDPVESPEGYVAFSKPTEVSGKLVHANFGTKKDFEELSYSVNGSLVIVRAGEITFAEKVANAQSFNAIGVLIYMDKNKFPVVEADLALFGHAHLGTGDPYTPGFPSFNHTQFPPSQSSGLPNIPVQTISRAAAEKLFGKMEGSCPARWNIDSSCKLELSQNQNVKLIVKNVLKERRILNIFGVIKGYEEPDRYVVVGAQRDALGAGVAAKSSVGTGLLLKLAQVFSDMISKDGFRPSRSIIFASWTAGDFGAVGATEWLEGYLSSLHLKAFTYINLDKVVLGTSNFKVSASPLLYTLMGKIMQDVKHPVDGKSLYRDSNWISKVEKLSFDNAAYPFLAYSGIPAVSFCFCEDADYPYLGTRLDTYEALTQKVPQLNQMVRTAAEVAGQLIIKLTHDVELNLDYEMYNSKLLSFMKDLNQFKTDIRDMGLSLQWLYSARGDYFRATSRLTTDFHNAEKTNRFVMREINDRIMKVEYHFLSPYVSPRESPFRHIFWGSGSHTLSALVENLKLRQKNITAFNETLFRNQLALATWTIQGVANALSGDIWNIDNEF
T1 sequence (Q62351 whole entry): as the sequence (Q62351 whole entry, the tested form may be a part) above

B1: C5-siSOD1m-5'VP (VHH, not shown: small tags and cut ends)
VHH: EVQLVESGGGVVQPGGSLKLSCVASGTDFSINFIRWYRQAPGKQREFVAGFTATGNTNYADSMKGRFTISRDNTKNAVYLQIDSLKPEDTAVYYCYMLDKWGQGTQVTVSS
modifications: siSOD1m-5'VP siRNA duplex linked by a stable linker (azide/alkyne click) to the VHH
notes: also called VHH-siSOD1m-5'VP wherein VHH is C5
Ki [1]: 164 nM
IC50 of mSOD1 mRNA downregulation, free uptake on Neuro-2a cells [2]: 7.4 nM

B2: VHH A6 (C5^V6) (VHH)
VHH: B1 VHH with M97A
Kd [3]: 3 to 4 nM
Kd [4]: 3.4 nM
Kd [5]: 182 nM

B3: VHH A7 (C5^V7) (VHH)
VHH: B1 VHH with L98A
Kd [3]: 255 nM
binding result [6]: binds

B4: E8 (VHH)
VHH: EVQLVESGGRLVQAGGSLRLSCTASGLAFSTHTMHWFRQAPGKEREFVGAIRWSDEDTEYADSVKGRFTISRDNAKSTVYLQMNNLKPEDTAVYYCAAARGVGTSGHMKYWGQGTQVTVSS
IC50 (read off the curve) [7]: ~40 nM
Kd [8]: 2.1 nM
Kd [9]: 3.4 nM
binding result [10]: no binding

B5: B8V31-NT(8-13) (VHH)
VHH: EVQLVESGGGVVQPGGSLRLSCAASGEIKSINFMRWYRQAPGKQREWVAGFTRDGSTNYPDSAKGRFTISRDNAKNTVYLQIDSLKPEDTAVYYCYMLDTWGQGTQVTVSS
Kd [11]: 25.6 nM
Kd [12]: 16.7 nM

B6: C5V30-NT(8-13) (VHH)
VHH: B1 VHH with F29K
Kd [13]: 25.6 nM
Kd [11]: 16.7 nM

B7: D12 (neg ctrl) (VHH)
VHH: EVQLVESGGGLVQPGGSLRLSCAASGFTFGSYVMSWVRQAPGKGPEWVSTVSSGGGTTYYADSVKGRFTISRDNAQNTLYLQMNSLKPEDTAVYYCATGRTGLGEGDHRGQGTQVTSSAAAEQKLISEEDLNGAAHHHHHHGS
notes: also called control VHH D12
binding result [10]: no binding
binding result [14]: no binding
